Experimental data reported in US20250163162A1 (SYNTHEKINE, published 2025).

T1: cIL2Rg-Fc (lot#P210115SV5) (cynomolgus, UniProt A0A2K5VGJ6 23-262)
T1 construct: Named only by lot number; also called cynomolgus IL2Rg-Fc; not shown: Fc of the fusion protein
T1 sequence: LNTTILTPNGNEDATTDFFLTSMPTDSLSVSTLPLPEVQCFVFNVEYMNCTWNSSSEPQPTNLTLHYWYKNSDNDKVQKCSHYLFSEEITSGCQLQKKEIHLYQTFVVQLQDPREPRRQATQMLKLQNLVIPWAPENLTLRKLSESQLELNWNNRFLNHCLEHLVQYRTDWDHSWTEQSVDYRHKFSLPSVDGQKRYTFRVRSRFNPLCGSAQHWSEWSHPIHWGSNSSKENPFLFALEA

T2: hIL2Rg-Fc (SinoBiological cat#10555) (human, UniProt P31785 23-254, limits assumed)
T2 construct: Bought Fc fusion (SinoBiological cat#10555); P31785 is printed for hCD132 in the background; also called human IL2Rg-Fc; not shown: Fc of the bought fusion protein
T2 sequence (looked up): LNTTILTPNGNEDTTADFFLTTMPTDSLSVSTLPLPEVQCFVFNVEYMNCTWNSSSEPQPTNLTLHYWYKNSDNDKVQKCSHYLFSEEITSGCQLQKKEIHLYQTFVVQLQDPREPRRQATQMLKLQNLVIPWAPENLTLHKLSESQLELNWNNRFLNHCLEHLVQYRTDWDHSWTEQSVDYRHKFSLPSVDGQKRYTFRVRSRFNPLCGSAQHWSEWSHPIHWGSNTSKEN


Assays:
[1] = target: T1, cIL2Rg-Fc (lot#P210115SV5); assay: SPR (Biacore T200), Fc-fused ligand captured on chip, dual VHH as analyte, 1:1 Langmuir fit
Procedure: (§1) All experiments were conducted in 10 mM Hepes, 150 mM NaCl, 0.05% (v/v) Polysorbate 20 (PS20) and 3 mM EDTA (HBS-EP+ buffer) on a Biacore T200 instrument equipped with Protein A or CAP biotin chips (Cytiva). For experiments on Protein A chips, Fc-fused ligands were flowed at 5 μl/min for variable time ranging from 18 to 300 seconds, reaching the capture loads listed in the tables below. Following ligand capture, injections of a 2-fold dilution series of analyte typically comprising at least five concentrations between 1 μM and 1 nM were performed in either high performance or single cycle kinetics mode. Surface regeneration was achieved by flowing 10 mM glycine-HCl, pH 1.5 (60 seconds, […]). Buffer-subtracted sensograms were processed with Biacore T200 Evaluation Software and globally fit with a 1:1 Langmuir binding model (bulk shift set to zero) to extract kinetics and affinity constants (kₐ, kd, KD). RMAX<100 RU indicates surface density compatible with kinetics analysis. Experiments on CAP chips were performed as described above with an additional capture step of Biotin CAPture reagent (10 seconds, 40 uL/min) performed prior to capture of biotinylated ligands. Calculated Rmax were generated using the equation Rmax=Load (RU) x valency of ligand x (Molecular weight of analyte/Molecular weight of ligand. Surface activity was defined as the ratio experimental/calculated Rmax. The results of these experiments are provided in below for sample information and experimental results.

[2] = target: T2, hIL2Rg-Fc (SinoBiological cat#10555); assay: as above
Procedure: as §1

[3] = target: T1, cIL2Rg-Fc (lot#P210115SV5); assay: SPR (Biacore T200); ratio experimental/calculated Rmax
[4] = target: T2, hIL2Rg-Fc (SinoBiological cat#10555); assay: as above

| Kd [1] | koff [1] | kon [1] | Kd [2] | koff [2] | kon [2] | Surface Activity [3] | Surface Activity [4] | Binder |
| --- | --- | --- | --- | --- | --- | --- | --- | --- |
| 13.4 nM | 0.0048 s⁻¹ | 360000 M⁻¹ s⁻¹ | 16.6 nM | 0.0057 s⁻¹ | 340000 M⁻¹ s⁻¹ | 1% | 5% | DR471(DR241-DR231) (bispecific antibody, Anti-hIL10Ra/hIL2Rg dual VHH with ASH6 handle; also called G3) QVQLQESGGGSVQAGGSLRLSCAASGYSNCSYDMTWYRQAPGKEREFVSAIHSDGSTRYADSVKGRFFISQDNAKNTVYLQMNSLKPEDTAMYYCKTDPLHCRAHGGSWYSVRANYWGQGTQVTVSSGGGSQVQLQESGGGSVQAGGSLRLSCTASGFTFDDREMNWYRQAPGNECELVSTISSDGSTYYADSVKGRFTISQDNAKNTVYLQMDSVKPEDTAVYYCAADFMIAIQAPGAGCWGQGTQVTVSSASHHHHHH |
| 41.3 nM | 0.0033 s⁻¹ | 79000 M⁻¹ s⁻¹ | 21.5 nM | 0.042 s⁻¹ | 2e+06 M⁻¹ s⁻¹ | 7% | 5% | DR442(DR236-DR232) (bispecific antibody, Anti-hIL10Ra/hIL2Rg dual VHH with ASH6 handle; also called F7) QVQLQESGGGSVQAGGSLRLSCAASRFTYSSYCMGWFRQAPGKEREGVASIDSDGSTSYTDSVKGRFTISKDNAKNTLYLQMNSLKPEDTAMYYCALDLMSTVVPGFCGFLLSAGMDYWGKGTQVTVSSGGGSQVQLQESGGGSVQAGGSLRLSCVASGYTSCMGWFRQAPGKEREAVATIYTRGRSIYYADSVKGRFTISQDNAKNTLYLQMNSLKPEDIAMYSCAAGGYSWSAGCEFNYWGQGTQVTVSSASHHHHHH |
